Target: SoPIP2;1 wild type (Spinacia oleracea)
Assay: SDS-PAGE (SDS-resistant oligomers); purified protein mixed with SDS sample loading buffer (125 mM Tris-HCl pH 6.8, 20% glycerol, 4% SDS), 10 min at room temperature, 12% gel, Coomassie; WT also pre-incubated with DTT or β-mercaptoethanol for varying times; WT against mutants with 10% β-mercaptoethanol in the loading buffer; monomer to dimer

stoichiometry N: 2
Substance: SoPIP2;1 wild type (natural protein)
